Holding throughout (assay): MST
Experiment [1] addresses SMG-1–8–9 complex (human | , UniProt Q96Q15;Q8ND04;Q9H0W8).
Experiment [2] concerns the target SMG-1, full length, SBP-tagged (human, UniProt Q96Q15 1-3661).
The target of experiment [3] is SMG-1ΔC-8–9 complex (human | , UniProt Q96Q15;Q8ND04;Q9H0W8, deleted from the residues 2442 to 3591).
Experiment [4] has as its target SMG-1–9 complex (human | , UniProt Q96Q15;Q9H0W8).

We go through one molecule from PMC4551919 (Nucleic Acids Research, 2015).

B1: UPF1, full length, fluorescently labeled with NT-547 (natural protein)
chain: MSVEAYGPSSQTLTFLDTEEAELLGADTQGSEFEFTDFTLPSQTQTPPGGPGGPGGGGAGGPGGAGAGAAAGQLDAQVGPEGILQNGAVDDSVAKTSQLLAELNFEEDEEDTYYTKDLPIHACSYCGIHDPACVVYCNTSKKWFCNGRGNTSGSHIVNHLVRAKCKEVTLHKDGPLGETVLECYNCGCRNVFLLGFIPAKADSVVVLLCRQPCASQSSLKDINWDSSQWQPLIQDRCFLSWLVKIPSEQEQLRARQITAQQINKLEELWKENPSATLEDLEKPGVDEEPQHVLLRYEDAYQYQNIFGPLVKLEADYDKKLKESQTQDNITVRWDLGLNKKRIAYFTLPKTDSGNEDLVIIWLRDMRLMQGDEICLRYKGDLAPLWKGIGHVIKVPDNYGDEIAIELRSSVGAPVEVTHNFQVDFVWKSTSFDRMQSALKTFAVDETSVSGYIYHKLLGHEVEDVIIKCQLPKRFTAQGLPDLNHSQVYAVKTVLQRPLSLIQGPPGTGKTVTSATIVYHLARQGNGPVLVCAPSNIAVDQLTEKIHQTGLKVVRLCAKSREAIDSPVSFLALHNQIRNMDSMPELQKLQQLKDETGELSSADEKRYRALKRTAERELLMNADVICCTCVGAGDPRLAKMQFRSILIDESTQATEPECMVPVVLGAKQLILVGDHCQLGPVVMCKKAAKAGLSQSLFERLVVLGIRPIRLQVQYRMHPALSAFPSNIFYEGSLQNGVTAADRVKKGFDFQWPQPDKPMFFYVTQGQEEIASSGTSYLNRTEAANVEKITTKLLKAGAKPDQIGIITPYEGQRSYLVQYMQFSGSLHTKLYQEVEIASVDAFQGREKDFIILSCVRANEHQGIGFLNDPRRLNVALTRARYGVIIVGNPKALSKQPLWNHLLNYYKEQKVLVEGPLNNLRESLMQFSKPRKLVNTINPGARFMTTAMYDAREAIIPGSVYDRSSQGRPSSMYFQTHDQIGMISAGPSHVAAMNIPIPFNLVMPPMPPPGYFGQANGPAAGRGTPKGKTGRGGRQKNRFGLPGPSQTNLPNSQASQDVASQPFSQGALTQGYISMSQPSQMSQPGLSQPELSQDSYLGDEFKSQIDVALSQDSTYQGERAYQHGGVTGLSQY
modifications: NT-547 dye on amines, on average one fluorescent moiety per UPF1 molecule
With B1, the Kd was found to be 38 nM in experiment [1], 75 nM in experiment [2], 221 nM in experiment [3] and 56 nM in experiment [4].

What is called Kd is a measure of binding affinity in units of concentration. Read a low Kd as higher affinity.
